From article PMC12589307, “^1H, ^13C, and ^15N resonance assignment of the C terminal region of the disordered postsynaptic scaffold protein GKAP” (Biomolecular Nmr Assignments, 2025)
Where no end group is shown, it is not given here.

Target: T1, Shank1-PDZ (UniProt Q9WV48, residues 654-768) (UniProt Q9WV48 654-768)
T1 construct: Shank1 PDZ domain, UniProt Q9WV48, residues 654-768; 100% identical with the human homolog Q9Y566 residues 654-768; also called Shank-PDZ; source: production and purification by the protocol of Sánta et al. 2022
T1 sequence (looked up): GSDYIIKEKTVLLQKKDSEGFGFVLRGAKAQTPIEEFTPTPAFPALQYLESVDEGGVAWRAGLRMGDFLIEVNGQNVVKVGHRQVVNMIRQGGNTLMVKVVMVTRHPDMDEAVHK
Assay: BLI; BLItz instrument, NTA biosensors; His-tagged GKAP-Ct43 immobilised as bait at 200 nM; Shank1-PDZ at 4, 2, 1 and 0.5 uM; 50 mM NaPi pH 7.4, 20 mM NaCl, 20 mM imidazole, 0.1% BSA, 0.02% Tween20; room temperature (no temperature control); global fit, average of three independent measurements
Conditions: both partners purified

- Kd: 3.1 ± 0.7 µM
B1: GKAP-Ct43, C-terminal 43 residues of Rattus norvegicus GKAP, with 6xHis tag kept (domain or fragment)
chain: GSHMSSQRQEARKRLMAAKRAASVRQNSATESAESIEIYIPEAQTRL
modifications: also: 6xHis tag named, not in given chain
notes: vector-derived residues that remain N-terminal after TEV cleavage; in the uncleaved BLI construct they follow the 6xHis tag and the TEV site; Guanylate kinase-associated protein GKAP (rGKAP1a), Rattus norvegicus, UniProt P97836, residues 950-992; 100% identical to human DLGAP1 O14490 residues 935-977; Modified pET-15b vector with 6xHis tag and TEV site; also called rGKAP1a C-terminus; source: TEV …
